Six molecules from patent CN115124620A (SHENGHE CHINA BIO PHARMACY CO LTD, dated 2022) can be followed below.

For this experiment, the target named is T1, 人NKp30-his蛋白(KACTUS;Cat:NKP-HM430) (human, UniProt O14931 19-135).
T1 construct: Bought protein; Molar concentration was calculated with 35 kDa; also called 重组人NKp30-his; 人NKp30蛋白; not shown: his tag
T1 sequence (looked up): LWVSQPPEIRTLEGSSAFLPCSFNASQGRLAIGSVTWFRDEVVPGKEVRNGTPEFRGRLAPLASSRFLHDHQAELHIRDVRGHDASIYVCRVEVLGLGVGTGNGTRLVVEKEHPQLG
As to the kind of experiment: BLI (Octet Red96e), antibody captured on sensor, 100 nM human NKp30-his in solution, 1:1 model.

B1: 抗体1 (antibody, V domains shown)
VH: QVQLQQPGAELVKPGASVKLSCKASGYTFTSYWMEWVKLRPGQGFDWIGEINPSNGGTNYNEKFKRKAILTVDKSSSAAYMQLSGLTSEDSAVYYCTIGGDYAWFAYWGQGTLVTVSA
VL: DIKMTQSPSSMYASLGERVTITCKASQDIKSYLSWYQQKPWKSPKTLIFYATSLADGVPSRFSASGSGQDYSLTISSLESDDTATYYCLQHGESPYTFGGGTKLEIK
notes: Mouse hybridoma monoclonal antibody purified on Protein A; also called 鼠源抗NKp30抗体; NKp30 mAb
One may read the Kd as the free concentration of one partner at which half of the binding sites on the other are occupied at equilibrium, for simple one-to-one binding. The koff is the first-order rate constant of dissociation. A high value points to fast dissociation. For orientation: kon means the rate constant with which the complex forms. Low values mean slow association, high ones fast association. B1: binding was characterised by a dissociation constant (Kd) of 0.439 nM, the koff is 0.000708 s⁻¹ and the kon was 1.61e+06 M⁻¹ s⁻¹.

B2: 抗体2 (antibody, V domains shown)
VH: EVQLQQFGAELVKPGASVKISCKASGYTFTDYNMDWVKQSHGKSLEWIAYINPNYEITTYNQKFKGKATLTVDKSSSTAYMELRSLTSEDTAVYYCARGRGGYDPAMDYWGQGTSVTVSS
VL: SIVMTQTPKFLLVSAGDRVTITCKASQSVSNDVTWSQQKPGQSPKLLIYYASNRYTGVPDRFTGSGYGTDFTFTISTVQAEDLAVYLCQQDNSTPPTFGAGTKLELK
notes: as for B1
In turn, B2 displayed a Kd of 0.197 nM, a koff of 0.000212 s⁻¹ and a kon of 1.08e+06 M⁻¹ s⁻¹.

B3: 抗体5 (antibody, V domains shown)
VH: VLILKESGGGLVKPGGSLKLSCAASGFAFSSYDMSWVRQTPEKRLEWVATISSGGSYTYYPDSVKGRFTISRDNARNTLYLQMSSLRSEDTALYYCARHFGDHDGYVMDYWGQGTSVIVSS
VL: DIVMTQSPSSLAMSLGQKVTMSCKSSQSLLNSSNQKSNLAWYQQKPGQSPKLLVYFASTRESGVPDRFIGSGSGTDFSLTIRSVQAEDLADYFCQQHYSTPFTFGSGTKLEIK
notes: as for B1
Take B3: binding was put at a Kd of 0.821 nM, the koff amounted to 0.000552 s⁻¹ and the kon was determined as 673000 M⁻¹ s⁻¹.

B4: 抗体4 (antibody, V domains shown)
VH: EVQLVESGGGLVKPGGSLKLSCAASGFTFSDYGMSWIRQTPEKRLEWVASISSGGTYTYYPDSVKGRFTISRDSAKNTLYLQMNSLRSEDTAMYYCARRDGYYSVEYWGQGTSVTVSS
VL: QIVLTQSPAIMSASPGGEVTMTCSASSSVSFMHWYQQKSGTSPKRWIFDTSKLASGVPTRFSGSGSGTSYSLTISSMEAEDAATYYCQQWTTNPPTFGGGTKLEIK
notes: as for B1
Regarding B4, the affinity, expressed as Kd, was 0.846 nM; the koff came out at 0.000338 s⁻¹; the kon amounted to 399000 M⁻¹ s⁻¹.

B5: 抗体3 (antibody, V domains shown)
VH: QGQLQQSGAEVMKPGASVKISCKANGHTFGSYWIEWIKQRPGHGLEWIGEILPGSGSKKYNEKFEGKATFTEETSSNTAYMELTSLTSEDSAVYYCSRGGYYGSRFAYWGQGTLVTVSA
VL: DVVLTQTPLSLPVNIGDQASISCKSTKSLLNSDGFTYLDWYLQKPGQSPQLLIYLVSNRFSGVPDRFSGSGSGTDFTLKISRVEAEDLGVYYCFQSNYLPFTFGSGTKLEIK
notes: as for B1
Molecule B5 gave a Kd of 2.03 nM, a koff of 0.00194 s⁻¹ and a kon of 959000 M⁻¹ s⁻¹.

B6: 抗体6 (antibody, V domains shown)
VH: QVQLQQSGAELVRPGVSVKISCKGSGYTFTDYAMHWVKQSHAKSLEWIGIISTYYGDASYNQKFKGKATMTVDKSSSTAYMELARLTSEDSAIYYCARDYDNRYAAMDYWGQGTSVTVSS
VL: DIVMTQAAFSNPVTLGTSASISCRSSKSLLHSNGITYLYWYLQKPGQSPQLLIYQMSNLASGVPDRFSSSGSGTDFTLRISRVEAEDVGVYYCAQNLELPYTFGGGTKLEIK
notes: as for B1
B6 showed a Kd of 5.43 nM, a koff of 0.00585 s⁻¹ and a kon of 1.08e+06 M⁻¹ s⁻¹.
